Experimental data: publication PMC5739284

Molecular target: His6-sPfUIS3 (recombinant His-tagged soluble P. falciparum UIS3, wild type) (P. falciparum)
Experiment: SPR

GST-His6-LC3B (recombinant) (from UniProt Q9GZQ8 1-120) (natural protein)
Kd: 0.244 µM
